Assay results from publication PMC5805785, “Site-specific phosphorylation of TRANSPARENT TESTA GLABRA1 mediates carbon partitioning in Arabidopsis seeds” (Nature Communications, 2018).
Changes are numbered by the printed parent chain.

Columns and labels:
[1] = biological target: T1, MBP-TT2 (Arabidopsis thaliana) (UniProt Q9FJA2); assay: EMSA; settings: LightShift Chemiluminescent EMSA kit (Pierce); buffer, salt, pH and temperature not stated
T1 sequence: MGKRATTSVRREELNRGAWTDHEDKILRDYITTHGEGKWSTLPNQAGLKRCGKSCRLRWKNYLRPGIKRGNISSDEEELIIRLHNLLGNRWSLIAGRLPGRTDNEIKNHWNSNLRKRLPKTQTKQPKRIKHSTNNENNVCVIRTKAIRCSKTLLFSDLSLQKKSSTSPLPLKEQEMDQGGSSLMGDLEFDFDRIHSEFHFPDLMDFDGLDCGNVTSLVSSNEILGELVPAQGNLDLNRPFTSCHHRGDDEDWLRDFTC

[2] = biological target: T1, MBP-TT2 (Arabidopsis thaliana); assay: competition; settings: LightShift Chemiluminescent EMSA kit (Pierce); buffer, salt, pH and temperature not stated
[3] = biological target: T2, MBP-TT2;MBP-TTG1 (Arabidopsis thaliana;Arabidopsis thaliana) (UniProt Q9FJA2+Q9XGN1); assay: EMSA; settings: LightShift Chemiluminescent EMSA kit (Pierce); buffer, salt, pH and temperature not stated
T2 sequence 1: T1 sequence
T2 sequence 2: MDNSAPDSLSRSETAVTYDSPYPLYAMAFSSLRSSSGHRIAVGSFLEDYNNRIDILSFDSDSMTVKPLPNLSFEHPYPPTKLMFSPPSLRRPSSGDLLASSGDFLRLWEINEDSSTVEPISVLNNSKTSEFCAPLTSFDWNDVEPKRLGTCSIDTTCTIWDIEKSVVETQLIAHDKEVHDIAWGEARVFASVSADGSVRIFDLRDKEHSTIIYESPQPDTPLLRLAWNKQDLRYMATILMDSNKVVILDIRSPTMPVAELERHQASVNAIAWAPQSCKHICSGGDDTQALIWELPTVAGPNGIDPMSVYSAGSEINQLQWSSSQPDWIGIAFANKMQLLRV

[4] = biological target: T3, MBP-TTG1 (TRANSPARENT TESTA GLABRA1) (Arabidopsis thaliana, UniProt Q9XGN1 1-341); assay: pull-down; MBP, MBP-TTG1, MBP-TTG1^S215E and MBP-TTG1^S215A on amylose beads as baits; TT2-His as prey, detected with anti-His; settings: both partners purified
T3 construct: TRANSPARENT TESTA GLABRA1 (TTG1), Arabidopsis thaliana, WD40 repeat protein; cDNA cloned into pMAL-c2x; also called recombinant MBP-TTG1; source: E. coli Rossetta (DE3), IPTG-induced, soluble fusion protein on amylose resin (methods); called 'in vitro-translated' in the results for the GST pull-down
T3 sequence (looked up): T2 sequence 2

[5] = biological target: T4, MBP-TTG1^S215A (Arabidopsis thaliana, UniProt Q9XGN1 1-341, S215A); assay: as above; settings: both partners purified
T4 construct: TRANSPARENT TESTA GLABRA1 (TTG1), Arabidopsis thaliana; mutated cDNA cloned into pMAL-c2x; source: E. coli Rossetta (DE3), soluble fusion protein immobilized on amylose beads
T4 sequence (looked up): T2 sequence 2 with S215A

[6] = biological target: T3, MBP-TTG1 (TRANSPARENT TESTA GLABRA1); assay: native gel or EMSA; EMSA supershift: recombinant MBP-TT2 and MBP-TTG1 incubated together with the biotinylated native GL2 probe (AC-rich motif); settings: both partners purified

ATAATATATAAGGAAGAAGGAGTGCGAGGAGAAGAGGGAAGAGATCATAATTAAGCAAAGAAGCTAGCTAGGGACAGGATTTGTATGTCAATGGCCGTCGACATGTCTTCAAAAAAAAAAAAAAAAGACTTTTTCTCCTCTCCAGCCCTCTCTCTATCTCTCGTATACTACTCTCTCTTTTCTACATACATGTACTTGCTAGCTCTCACATAAACATATATT (double strand) [GL2 mutated probe]
binding [1]: no binding

ATAATATATAAGGAAGAAGGAGTGCGAGGAGAAGAGGGAAGAGATCATAATTAAGCAAAGAAGCTAGCTAGGGACAGGATTTGTATGTCAATGGCCGTCGACATGTCTTCCAAACAACCCACCAAAGACTTTTTCTCCTCTCCAGCCCTCTCTCTATCTCTCGTATACTACTCTCTCTTTTCTACATACATGTACTTGCTAGCTCTCACATAAACATATATT (double strand) [GL2 native competitor]
binding [2]: binds

ATAATATATAAGGAAGAAGGAGTGCGAGGAGAAGAGGGAAGAGATCATAATTAAGCAAAGAAGCTAGCTAGGGACAGGATTTGTATGTCAATGGCCGTCGACATGTCTTCCAAACAACCCACCAAAGACTTTTTCTCCTCTCCAGCCCTCTCTCTATCTCTCGTATACTACTCTCTCTTTTCTACATACATGTACTTGCTAGCTCTCACATAAACATATATT (double strand) [GL2 native probe]
binding [3]: binds | binding [1]: binds

B1: TT2-His (natural protein, Arabidopsis thaliana, UniProt Q9FJA2 1-258, looked up)
chain: T1 sequence
notes: TRANSPARENT TESTA2 (TT2; MYB123), Arabidopsis thaliana; cDNA cloned into pET28a; also called MYB123; source: E. coli Rossetta (DE3), IPTG-induced, soluble fusion protein
binding result [4]: binds | binding result [5]: binds

B2: MBP-TT2 (natural protein, Arabidopsis thaliana, UniProt Q9FJA2 1-258, looked up)
chain: T1 sequence
notes: TRANSPARENT TESTA2 (TT2; MYB123), Arabidopsis thaliana; cDNA cloned into pMAL-c2x; also called MYB123; source: E. coli Rossetta (DE3), recombinant protein produced as for the pull-down assay
binding result [6]: binds
